Measured values reported in the nanobody polyreactivity screen of Harvey et al. (2022).

Assay: yeast display, Sf9 membrane polyspecificity reagent, FACS + sequencing; frameworks hold sequencing errors
Summary of the method: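 Polyreactivity labels are assigned by the sorting gate from which each nanobody was recovered. The gates were low and high (top ~1%), set on anti-HA fluorescence for expression and streptavidin fluorescence for reagent binding. Before sorting, galactose-induced (36–48 hours) yeast display cells were stained for 1 hour at 4 °C with 10% biotinylated, detergent-solubilized Sf9 membrane reagent.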

Row | Sequence | polyreactivity (PSR sort gate)
1 | QVQLVESGGGLVQAGGSLRLSCAASGFTFTYNAMGWYRQAPGKERELVAAITANGGGTNYADSVKGRFTISRDNAKNTVYLQMNSLKPEDTAVYYCAATIVVAVFESLVFYWYTEDNYWGQGTQVTVSS | low polyreactivity
2 | QVQLVESGGGLVQAGGSLRLSCAASGFTFTYNAMGWYRQAPGKERELVARIRWSTGSTYYADSVKGRFTISRDNAKKTVYLQMNSLKPEDTAVYYCAADGYGWGGSGWQYPHGFGYWGQGTQVTVSS | low polyreactivity
3 | QVQLVESGGGLVQAGGSLRLSCAASGFTFTYYAMGWYRQAPGKERELVAAISRNGGDTYYADSGKGRFTISRDNAKNTVYLQMNSLKPEDSAVYYCNARTPTDSTHFDYWGQGTQVTVSS | low polyreactivity
4 | QVQLVESGGGLVQAGGSLRLSCAASGFTFTYYAMGWYRQAPGNERELVAAISSGGNTYYADSVKGRFTISRDNAKNTVYLQMNSLKPEDTAVYYCAAQYSKRAWSWTYAYSYFRFDYWGQGTQVTVSS | low polyreactivity
5 | QVQLVESGGGLVQAGGSLRLSCAASGFTFTYYTMGWYRQAPGKARELVAAISWSGGSTYYADSVKGRLTISRDNANNPVYLQMNSLKPEDTEVYYCNKVGIGYNTKRDYWGQGTQVTVSS | high polyreactivity
6 | QVQLVESGGGLVQAGGSLRLSCAASGFTFTYYTMGWYRQAPGKERELVAGISRSGGSTYYADSVKGRFTISRDNAKNTVYLQMNSLKPEDTAVYYCAAVVRSYSDRYDYWGQGTQVTVSS | high polyreactivity
7 | QVQLVESGGGLVQAGGSLRLSCAASGFTFTYYTMGWYRQAPGKESELVAAISWSGGRTYYADSVKGRFTISRDNAKNTVYLQMNSLKPEDTAVYYCAAVYSSYYSSSYGYWGQGTQVTVSS | high polyreactivity
8 | QVQLVESGGGLVQAGGSLRLSCAASGFTFVDNAMGWYRQPPRKERELVAAISWTGVGSTYYADSVKGRFTISRDNAKNTDYLQMNSLKPEDTAVYYCAADGLSRGVPDEFDYWGQGTQVTVSS | low polyreactivity
9 | QVQLVESGGGLVQAGGSLRLSCAASGFTFVFYAIGWYRQAPGKARELVAAISSRGGSTYYADSVKGRFTISRDNAKNTVYLQMNSLKPEDTAVYYCNVVSPYWTTYEEYYWGQGTQVTVSS | high polyreactivity
10 | QVQLVESGGGLVQAGGSLRLSCAASGFTFVKNVMGWYRQAPGKERELVADITRRGGTTYYADSVKGRFTISRDNAKNTVYLQMNSLKPEDTAVYYCATEYWYGIYGYDYWGQGTQVTVSS | high polyreactivity
11 | QVQLVESGGGLVQAGGSLRLSCAASGFTFVKYAMGWYRQAPGKERELVAVISRRGGSTYYADSVKGRFTISRDNAKNTVYLQMNSLKPEDTAVYYFAAKVALPRTQEWEYGYWGQGTQVTVSS | high polyreactivity
12 | QVQLVESGGGLVQAGGSLRLSCAASGFTFVPYAMGWYRLAPGKEREFVATISWSAGRTYYADSVKGRFTISRDNAKNTVYLQMNSLKPEDTAVYYCNTASYRGYDYWGQGTQVTVSS | high polyreactivity
13 | QVQLVESGGGLVQAGGSLRLSCAASGFTFVPYAMGWYRQAPGKERELVAAISSTGGSTYYADSVKGRFTISRDNAKNTVYLQMNSLKPEDTAVYYCAAKITRRYYPGYLFDSWGQGTQVTVSS | high polyreactivity
14 | QVQLVESGGGLVQAGGSLRLSCAASGFTFVPYDMGWYRQAPGKERELVAAITDSSGSTHYADSVKGRFTFSRDNAKNTVYLQMNSLKPEDTAVYYCAADDSSRTTYDYWGQGTQVTVSS | low polyreactivity
15 | QVQLVESGGGLVQAGGSLRLSCAASGFTFVRNAMGWYRQAPGKERELVAAISYRGGSTYYADSVKGRFTISRDNAKNTVYLQMNSLKPEDTAVYYCAAEAGYSSRRYYWGQGTQVTVSS | high polyreactivity
16 | QVQLVESGGGLVQAGGSLRLSCAASGFTFVRNAMGWYRQAPGNERELVAALSTSAGSTYYADSVKGRFTISRDNAKNTVYLQMNSLKPEDTAVYYSAASASRYFVLAASGGIRYYYWGQGTQVTVSS | high polyreactivity

Row | Sequence | polyreactivity (PSR sort gate)
17 | QVQLVESGGGLVQAGGSLRLSCAASGFTFVRYAMGWYRQAPGKERELVAAISRSSGSTYYADSVKGRFTISRDNAKNTVYLQMNSLKPEDTAVYYCARRYGRYSGTYDYWGQGTQVTVSS | high polyreactivity
18 | QVQLVESGGGLVQAGGSLRLSCAASGFTFVRYVMGWYRQAPGKERELVAAISRSGGSTHYADSVKGRFTISRDNAKYTVYLQMNSLKPEDTAVYYCAAASPRWPGQGDYWGEGTQVTVSS | high polyreactivity
19 | QVQLVESGGGLVQAGGSLRLSCAASGFTFVSYAMGWYRQAPGKERELVAAISKRGGSTSYADSVKGRFTISRDNAKNTVYFQMNSLKPEDTAVYYCYNRSYAWSPHVDYWGQGTQVTVSS | high polyreactivity
20 | QVQLVESGGGLVQAGGSLRLSCAASGFTFVSYAMGWYRQAPGKERELVAAISRSGGRTYYADSVKGRFTISRDNAKNTVYLQMNSLKPEDSAVYYCAKAYRPFYSRVQDYDYWGQGTQVTVSS | high polyreactivity
21 | QVQLVESGGGLVQAGGSLRLSCAASGFTFVTYAMGWSSQAPGKERELVATISWGVGGSYYADSVKGRFTISRDNAKNTVYLPMNSLKPEDTAVYYCNARHTWHQTYDYWGQGTQVTVSS | low polyreactivity
22 | QVQLVESGGGLVQAGGSLRLSCAASGFTFVWYAMGWYRQAPGKEREFVAAINRSGGSTYYADSVKGRFTISRDNAKNTVYLQMNSLKPEDTAVYYCAAESWRGWSEFYYWGQGTQVTVSS | high polyreactivity
23 | QVQLVESGGGLVQAGGSLRLSCAASGFTFVYNAMGWYRQAPGKERELVAAISSSGGRTYYADSVKGRFTISRDNAKNTVYLQMNSLKPEDTAVYYCAVEYPVYYYVEYDYWGQGTQVTVSS | high polyreactivity
24 | QVQLVESGGGLVQAGGSLRLSCAASGFTFVYYAMGWYRQAPGKERELVAAISQSGSSTYYADSVKGRFTISRDNPKNTVYLQMNSLKPEDTAVYYCNVYYASRPTYDFGYWGQVTQVTVSS | high polyreactivity
25 | QVQLVESGGGLVQAGGSLRLSCAASGFTFVYYAMGWYRQAPGKERELVAAITSADSTNYADSVKGRFTISRDNAKNTVYLQMNSLKPEDTAVYYCNAVYDYYRQSKWTMVYWGQGTQVTVSS | low polyreactivity
26 | QVQLVESGGGLVQAGGSLRLSCAASGFTFVYYAMGWYRQAPGKERELVATISGNGGRTYYADSVKGRFTISRDNAKNTVYLQMNSLIPDDTAVYYCATDVGFGRKQRPHRPGYGYWGQGTLVTVSS | low polyreactivity
27 | QVQLVESGGGLVQAGGSLRLSCAASGFTFVYYAMGWYRQAPGKERELVPAISWNGGSTYYADSVKGRFTISRDNAKNTVYLQMNCLKPEDTAVYYCAAEYSYRLLQTFYYPYGYWGQGTQVTVSS | high polyreactivity
28 | QVQLVESGGGLVQAGGSLRLSCAASGFTFVYYTMGWYRPAPWKERELVAAITWRGSTYYADSVKGRFTISRDNAKNTVYLQMNSLKPEDTAVYYCAARYRVLLRHREYDYWGQGTQVTVSS | high polyreactivity
29 | QVQLVESGGGLVQAGGSLRLSCAASGFTFVYYVMGWYRQAPGKERELVAAINAGGGSTYYADSVKGRFTISRDNAKNTVYLQMNSLKPEDTAVYYCNARVRVRLGRKWSSYYYWGQGTQVTVSS | high polyreactivity
30 | QVQLVESGGGLVQAGGSLRLSCAASGFTFWGYGMGWYRQAPGKERELVAAISGSGGSTYYADSVKGRFTISRDNAKNTVFLQMNSLKRKIPRSITALLFTVNGGGSRSHDYWAQGTQVTVSS | low polyreactivity
31 | QVQLVESGGGLVQAGGSLRLSCAASGFTFWQYAMGSSRTAPGKERELVAAISSRGGSTYYADSVKGRFTISRDKAKNTVYLQMNSLKPEDTAVYYCNARANGFKDGYWGQGTQVTVSS | high polyreactivity
